Assay results as given in patent US20230025129A1 (KYMAB, published 2023).
Changes are numbered by the printed parent chain. Values belong to the binder of their own block, whether it stands above or below them.

Experiments:
[1] = target: T1, human matriptase-2 ECD protein his tag (human, UniProt Q8IU80 78-811); assay: cell-based or functional assay
T1 sequence: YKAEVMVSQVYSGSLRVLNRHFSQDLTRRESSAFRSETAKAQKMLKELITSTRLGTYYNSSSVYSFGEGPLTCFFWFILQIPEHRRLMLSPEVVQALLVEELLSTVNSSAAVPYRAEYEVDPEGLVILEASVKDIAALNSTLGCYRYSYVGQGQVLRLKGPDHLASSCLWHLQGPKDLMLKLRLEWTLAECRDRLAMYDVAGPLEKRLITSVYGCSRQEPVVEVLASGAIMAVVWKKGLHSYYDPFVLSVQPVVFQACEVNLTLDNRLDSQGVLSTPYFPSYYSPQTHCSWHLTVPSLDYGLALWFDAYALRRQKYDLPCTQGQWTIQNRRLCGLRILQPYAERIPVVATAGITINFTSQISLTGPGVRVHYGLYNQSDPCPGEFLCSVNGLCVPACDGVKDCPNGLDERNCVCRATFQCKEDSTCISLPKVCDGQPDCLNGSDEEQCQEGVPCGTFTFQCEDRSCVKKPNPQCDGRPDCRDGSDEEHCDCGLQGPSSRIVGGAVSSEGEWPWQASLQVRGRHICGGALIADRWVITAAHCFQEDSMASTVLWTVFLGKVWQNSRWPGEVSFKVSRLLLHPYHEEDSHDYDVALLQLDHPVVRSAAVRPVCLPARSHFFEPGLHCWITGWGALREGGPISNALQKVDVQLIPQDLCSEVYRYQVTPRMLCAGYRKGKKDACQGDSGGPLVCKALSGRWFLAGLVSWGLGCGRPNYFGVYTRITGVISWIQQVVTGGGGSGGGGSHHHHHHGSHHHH

[2] = target: T2, mouse matriptase-2 ECD protein his tag (mouse, UniProt Q9DBI0 80-811); assay: cell-based or functional assay
T2 sequence: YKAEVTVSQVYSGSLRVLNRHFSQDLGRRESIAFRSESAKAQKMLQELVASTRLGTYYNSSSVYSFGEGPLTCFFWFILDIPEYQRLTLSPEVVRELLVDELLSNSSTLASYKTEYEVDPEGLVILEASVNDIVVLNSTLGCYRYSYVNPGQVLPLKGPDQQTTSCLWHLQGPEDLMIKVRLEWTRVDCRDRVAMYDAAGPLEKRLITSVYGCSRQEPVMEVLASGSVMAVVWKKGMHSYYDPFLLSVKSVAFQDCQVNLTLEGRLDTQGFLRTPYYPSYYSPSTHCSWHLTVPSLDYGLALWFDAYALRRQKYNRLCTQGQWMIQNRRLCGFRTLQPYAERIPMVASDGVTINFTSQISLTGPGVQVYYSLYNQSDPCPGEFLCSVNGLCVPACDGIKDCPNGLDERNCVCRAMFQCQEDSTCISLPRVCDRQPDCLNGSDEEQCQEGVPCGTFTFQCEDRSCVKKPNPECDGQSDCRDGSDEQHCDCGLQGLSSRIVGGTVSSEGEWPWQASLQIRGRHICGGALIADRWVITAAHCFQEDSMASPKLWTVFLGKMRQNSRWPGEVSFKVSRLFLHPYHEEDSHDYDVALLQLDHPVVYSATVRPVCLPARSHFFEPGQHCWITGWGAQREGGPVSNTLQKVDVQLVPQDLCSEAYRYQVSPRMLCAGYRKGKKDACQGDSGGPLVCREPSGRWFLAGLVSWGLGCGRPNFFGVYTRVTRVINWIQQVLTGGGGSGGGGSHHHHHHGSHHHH

[3] = target: T3, human MTP-2 expressed on HEK293 cells (human, UniProt Q8IU80 1-811); assay: cell-based or functional assay
T3 sequence: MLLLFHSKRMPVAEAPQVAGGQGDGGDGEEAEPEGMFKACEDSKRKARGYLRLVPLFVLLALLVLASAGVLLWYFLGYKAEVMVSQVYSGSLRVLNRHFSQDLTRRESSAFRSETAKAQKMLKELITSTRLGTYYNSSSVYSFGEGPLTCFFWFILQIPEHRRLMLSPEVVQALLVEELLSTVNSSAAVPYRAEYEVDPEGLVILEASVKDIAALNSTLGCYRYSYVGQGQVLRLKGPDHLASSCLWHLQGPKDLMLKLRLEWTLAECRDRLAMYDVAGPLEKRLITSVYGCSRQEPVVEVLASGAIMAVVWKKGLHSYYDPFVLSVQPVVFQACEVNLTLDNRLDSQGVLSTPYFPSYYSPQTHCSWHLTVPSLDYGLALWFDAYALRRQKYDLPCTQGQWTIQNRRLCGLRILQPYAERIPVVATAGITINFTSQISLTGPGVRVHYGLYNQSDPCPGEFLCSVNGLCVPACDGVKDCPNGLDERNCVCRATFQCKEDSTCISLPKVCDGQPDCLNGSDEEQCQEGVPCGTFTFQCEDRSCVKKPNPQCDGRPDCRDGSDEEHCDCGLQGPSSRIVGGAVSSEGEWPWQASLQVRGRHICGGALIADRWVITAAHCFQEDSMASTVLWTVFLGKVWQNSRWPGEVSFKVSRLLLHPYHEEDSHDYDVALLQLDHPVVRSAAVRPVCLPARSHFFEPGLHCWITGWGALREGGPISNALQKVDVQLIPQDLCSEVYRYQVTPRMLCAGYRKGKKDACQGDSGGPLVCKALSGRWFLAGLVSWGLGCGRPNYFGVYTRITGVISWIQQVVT

[4] = target: T4, human matriptase-2 mask ECD protein his tag (human, UniProt Q8IU80 78-576); assay: SPR, antibody captured, headless ECD as analyte
T4 construct: MTP-2 ECD without the serine protease domain, with C-terminal linker and His tag; also called headless huMTP-2 ECD 78-576 aa; headless human MTP-2 ECD
T4 sequence: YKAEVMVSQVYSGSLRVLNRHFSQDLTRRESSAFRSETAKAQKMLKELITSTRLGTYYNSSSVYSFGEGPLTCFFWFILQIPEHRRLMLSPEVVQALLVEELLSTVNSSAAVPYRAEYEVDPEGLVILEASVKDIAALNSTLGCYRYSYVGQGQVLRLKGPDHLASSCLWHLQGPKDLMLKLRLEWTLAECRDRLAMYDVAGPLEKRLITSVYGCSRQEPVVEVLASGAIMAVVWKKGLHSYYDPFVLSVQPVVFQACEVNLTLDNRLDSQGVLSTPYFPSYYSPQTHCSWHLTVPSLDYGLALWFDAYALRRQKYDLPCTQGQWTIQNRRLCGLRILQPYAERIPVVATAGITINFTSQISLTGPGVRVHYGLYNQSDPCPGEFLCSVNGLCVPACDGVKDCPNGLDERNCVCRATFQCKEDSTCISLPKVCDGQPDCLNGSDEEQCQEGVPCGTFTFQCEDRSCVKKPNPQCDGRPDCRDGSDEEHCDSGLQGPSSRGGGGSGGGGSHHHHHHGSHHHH
Experimental: (§1) Off-rate screening was performed by surface plasmon resonance (SPR), using a Biacore 8K system (GE Healthcare). Anti-human Fc mix (˜1000 RU) were immobilised in both active and reference channels in HBS-P+ buffer (GE BR100671) pH 7.4. Anti-MTP-2 hulgG4PE antibodies were then captured for 60 sec at 10 μl/min at 1 μg/ml concentration (approximatively 35 and 50 RU were captured) only on the active channel. MTP-2 ECD protein analytes were then injected (at 100, 25, 6.25, 1.56 and 0 nM concentrations) for 120 sec (association time) at 30 μl/min and dissociation monitored for 600 sec. Multiple cycle kinetics mode was used with all 8 channels being used. Reference and background were subtracted from the sensorgrams for each antibody and data was fitted using a 1:1 interaction model in the Biacore evaluation software. Rmax, ka, kd globally fitted, RI=0.
Binding was also assessed using the above SPR method with “headless” huMTP-2 ECD 78-576 aa instead of the full ECD. Headless ECD corresponds to the MTP-2 ECD without the serine protease domain.

[5] = target: T1, human matriptase-2 ECD protein his tag; assay: SPR (Biacore 8K), huIgG4PE captured on anti-human Fc, MTP-2 ECD as analyte, 1:1 fit
Experimental: as §1

[6] = target: T2, mouse matriptase-2 ECD protein his tag; assay: as above
Experimental: as §1

Inhibition enzymatic activity human MTP2 protein (IC50) [1]: 55.5 nM
Inhibition enzymatic activity mouse MTP2 protein (IC50) [2]: 17.6 nM
Inhibition enzymatic activity human MTP2 on cells (IC50) [3]: 5.68 nM
Binding Late top conc [5]: 8.6
Kd [5]: 15 nM
Stoichiometry [5]: 0.48
koff [5]: 0.00112 s⁻¹
kon [5]: 74800 M⁻¹ s⁻¹
Binding Late top conc [6]: 5
Kd [6]: 19.6 nM
Stoichiometry [6]: 0.47
koff [6]: 0.000693 s⁻¹
kon [6]: 35400 M⁻¹ s⁻¹
B1: NORI-009 (antibody, human IgG4 S228P, lambda, V domains shown)
VH: EVQLVESGGGLVQPGRSLRLSCAASGFTFNDHVIYWVRQVPGKGLEWVSTISWNSDTIAYADSVKGRFTISRDNAKNALYLQMNSLRTEDTALYYCAREKDGDFYYDYFAMDVWGQGTTVTVSS
VL: QSALTQPPSASGSPGQSVTLSCTGTSSDVGYYNYVSWYLQHPGKAPKLMIYEVSKRPSGVPDRFSGSKSANTASLTVSGLQAEDEADYYCSSYAGSNKVVFGGGTKVTVLG
notes: human IgG4PE, lambda
binding result [4]: no binding (tested: analyte up to 100 nM)

Inhibition enzymatic activity human MTP2 protein (IC50) [1]: 17.7 nM
Inhibition enzymatic activity mouse MTP2 protein (IC50) [2]: 9.76 nM
Inhibition enzymatic activity human MTP2 on cells (IC50) [3]: 3.51 nM
Binding Late top conc [5]: 7.9
Kd [5]: 10.5 nM
Stoichiometry [5]: 0.63
koff [5]: 0.000442 s⁻¹
kon [5]: 42300 M⁻¹ s⁻¹
Binding Late top conc [6]: 4.5
Kd [6]: 24.4 nM
koff [6]: 0.000324 s⁻¹
kon [6]: 13300 M⁻¹ s⁻¹
B2: NORI-010 (antibody, human IgG4 S228P, lambda)
heavy: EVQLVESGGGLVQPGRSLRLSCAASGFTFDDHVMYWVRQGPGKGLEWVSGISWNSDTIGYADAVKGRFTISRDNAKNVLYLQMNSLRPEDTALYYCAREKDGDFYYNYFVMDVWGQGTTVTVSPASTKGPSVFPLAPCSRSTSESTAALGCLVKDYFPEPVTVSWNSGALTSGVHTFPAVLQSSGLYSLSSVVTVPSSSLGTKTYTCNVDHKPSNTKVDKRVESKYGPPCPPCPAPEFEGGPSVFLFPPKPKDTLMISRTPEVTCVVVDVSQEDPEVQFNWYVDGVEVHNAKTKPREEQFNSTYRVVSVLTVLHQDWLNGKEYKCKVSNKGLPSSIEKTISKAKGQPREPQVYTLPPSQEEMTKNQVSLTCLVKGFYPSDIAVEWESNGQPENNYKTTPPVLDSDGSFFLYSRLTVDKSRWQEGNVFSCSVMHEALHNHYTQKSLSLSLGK
light: QSALTQPPSASGSPGQSVTISCTGTSSDVGFYNFVSWYQQHPDKAPKVMIYEVSKRPSGVPDRFSGSKSGNTASLTVSGLQAEDEADYYCSSYAGSNKVVFGGGTKLTVLGQPKAAPSVTLFPPSSEELQANKATLVCLISDFYPGAVTVAWKADSSPVKAGVETTTPSKQSNNKYAASSYLSLTPEQWKSHRSYSCQVTHEGSTVEKTVAPTECS
notes: human IgG4PE, lambda
binding result [4]: no binding (tested: analyte up to 100 nM)

Inhibition enzymatic activity human MTP2 protein (IC50) [1]: 21.2 nM
Inhibition enzymatic activity mouse MTP2 protein (IC50) [2]: 11.5 nM
Inhibition enzymatic activity human MTP2 on cells (IC50) [3]: 4.26 nM
Binding Late top conc [5]: 8.5
Kd [5]: 9.13 nM
Stoichiometry [5]: 0.6
koff [5]: 0.000427 s⁻¹
kon [5]: 46700 M⁻¹ s⁻¹
Binding Late top conc [6]: 4.6
Kd [6]: 29 nM
Stoichiometry [6]: 1.08
koff [6]: 0.000337 s⁻¹
kon [6]: 11600 M⁻¹ s⁻¹
B3: NORI-012 (antibody, human IgG4 S228P, lambda, V domains shown)
VH: EVQLVESGGGLVQPGRSLRLSCAASGFTFDDHVMYWVRQAPGKGLEWVSGISWNSDTIGYADAVKGRFTISRDNAKNVLYLHMNSLRPEDTALYYCAREKDGDFYYNYFVMDVWGQGTTVTVSP
VL: B1 VL with L20I, Y31F, Y34F, L39Q, G43D, L48V, A70G, V107L
notes: human IgG4PE, lambda
binding result [4]: no binding (tested: analyte up to 100 nM)

Inhibition enzymatic activity human MTP2 protein (IC50) [1]: 2.84 nM
Inhibition enzymatic activity mouse MTP2 protein (IC50) [2]: 1.73 nM
Inhibition enzymatic activity human MTP2 on cells (IC50) [3]: 0.206 nM
B4: NORI-033 (antibody, human IgG4 S228P, lambda, V domains shown)
VH: QLQLQESGPGLVKPSETLSLTCTVSGDSISSHTYWWGWIRQPPGKGLEWIGSMFYSGSTYYNPSLKSRVVISVDTSRNQFSLKVRSVTAADTAVFYCARHNNWGMENYFDDWGQGTLVTVSS
VL: SYALTQPPSVSVSPGQTARITCSADALPDQYGYWYQQKPGQAPVLVIYKDSERPSGIPERFSGSSSGTTVTLTISGVQAEDEADYYCQSADSSGSYVVFGGGTKLTVLG
